Results taken from US20100325744A1 (Genmab, published 2010).

Tests used:
[1] = target: T1, human C1q (Quidel) (human, UniProt P02745 23-245; P02746 28-253; P02747 29-245); experiment: ELISA, antibody coated, C1q detected with rabbit anti-human C1q
T1 construct: Bought (Quidel, lot 900848); also called first component of the classical complement cascade
Description: In short, microtiter ELISA plates (Greiner, Germany) were coated overnight at RT with the test antibodies serially diluted from 10 μg/ml to 0.06 μg/ml in PBS. Plates were emptied and wells were blocked with 200 μl ELISA-diluent per well (0.1 M NaPO₄, 0.1 M NaCl, 0.1% gelatin and 0.05% Tween-20), at RT for 30 minutes. […] After washing the plates (3×) with PBST, wells were incubated with HRP-conjugated swine anti-rabbit IgG-Fc (DAKO, P0300, lot #069) diluted in ELISA diluent (1:2500, 100 μl/well, RT, 1 hour). Thereafter, plates were washed thrice and assays were developed with freshly prepared 1 mg/ml ABTS solution (ABTS: 2,2′-azino-bis[3-ethylbenzthiazoline-6-sulfonic acid]); 2 tablets of 5 mg in 10 ml ABTS buffer, Boehringer Mannheim, Ingelheim, Germany) at RT in the dark for 30 minutes.

[2] = target: the molecule itself; experiment: self-association; gel filtration on Superdex 200 in PBS, fractions read by Bet v 1 binding test
Description: Samples (100 μl) were applied to a Superdex 200 HR 10/30 column (Amersham Biosciences, Uppsala, Sweden), which was connected to a HPLC system (ÄKTA explorer) from Amersham Biosciences, Uppsala, Sweden. The column was first equilibrated in PBS. Fractions of 250 μl were collected, in which Bet v 1 specific IgG was measured using the antigen binding assay.
To test the antigen binding of the Bet v 1 specific antibodies, a sample of diluted antibody was incubated overnight at room temperature with 0.75 mg Protein-G sepharose (Amersham Biosciences, Uppsala, Sweden) in 750 μl PBS/AT (PBS supplemented with 0.3% BSA, 0.1% Tween-20, 0.05% NaN3) together with 50 μl diluted ¹²⁵I-labelled Bet v 1 or ¹²⁵I-labelled Fel d 1. […] After washing the Sepharose suspension with PBS-T (PBS supplemented with 0.1% Tween-20), the bound radioactivity was measured. The results were expressed as the amount of radioactivity relative to the amount added.

T1 sequence (P02745 23-245 limits assumed, chain 1 of 3): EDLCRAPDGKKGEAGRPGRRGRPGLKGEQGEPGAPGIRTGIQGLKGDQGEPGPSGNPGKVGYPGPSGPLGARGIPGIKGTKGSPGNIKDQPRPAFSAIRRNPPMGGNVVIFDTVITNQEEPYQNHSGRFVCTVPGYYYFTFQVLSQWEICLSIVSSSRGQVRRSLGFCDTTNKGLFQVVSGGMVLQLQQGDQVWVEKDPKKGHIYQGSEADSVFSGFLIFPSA
T1 sequence (P02746 28-253 limits assumed, chain 2 of 3): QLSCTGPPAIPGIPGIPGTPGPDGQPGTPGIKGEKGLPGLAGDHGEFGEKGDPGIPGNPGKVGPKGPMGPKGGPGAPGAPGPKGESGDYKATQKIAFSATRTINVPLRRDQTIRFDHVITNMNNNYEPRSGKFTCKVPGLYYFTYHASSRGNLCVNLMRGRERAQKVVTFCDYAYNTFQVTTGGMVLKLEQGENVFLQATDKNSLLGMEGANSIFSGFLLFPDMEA
T1 sequence (P02747 29-245 limits assumed, chain 3 of 3): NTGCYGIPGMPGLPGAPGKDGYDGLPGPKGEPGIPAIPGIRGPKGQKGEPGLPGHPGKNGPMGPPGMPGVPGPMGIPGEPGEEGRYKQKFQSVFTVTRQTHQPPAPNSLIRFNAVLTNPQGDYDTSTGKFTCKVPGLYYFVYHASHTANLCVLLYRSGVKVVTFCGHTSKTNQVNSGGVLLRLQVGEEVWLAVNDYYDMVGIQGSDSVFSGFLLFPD

B1: 7D8-IgG4 (antibody)
heavy: not shown
light: EIVLTQSPATLSLSPGERATLSCRASQSVSSYLAWYQQKPGQAPRLLIYDASNRATGIPARFSGSGSGTDFTLTISSLEPEDFAVYYCQQRSNWPITFGQGTRLEIK
notes: Produced from pTomG47D8 and pConK7D8; also called IgG4 anti-CD20; not shown: human kappa light chain constant region, allotype km3 (vector pConKappa0.4, Lonza)
[1]
  binding result: no binding

B2: 7D8-HG (antibody)
heavy: EVQLVESGGGLVQPDRSLRLSCAASGFTFHDYAMHWVRQAPGKGLEWVSTISWNSGTIGYADSVKGRFTISRDNAKNSLYLQMNSLRAEDTALYYCAKDIQYGNYYYGMDVWGQGTTVTVSSASTKGPSVFPLAPCSRSTSESTAALGCLVKDYFPEPVTVSWNSGALTSGVHTFPAVLQSSGLYSLSSVVTVPSSSLGTKTYTCNVDHKPSNTKVDKRVAPEFLGGPSVFLFPPKPKDTLMISRTPEVTCVVVDVSQEDPEVQFNWYVDGVEVHNAKTKPREEQFNSTYRVVSVLTVLHQDWLNGKEYKCKVSNKGLPSSIEKTISKAKGQPREPQVYTLPPSQEEMTKNQVSLTCLVKGFYPSDIAVEWESNGQPENNYKTTPPVLDSDGSFFLYSRLTVDKSRWQEGNVFSCSVMHEALHNHYTQKSLSLSLGK
light: EIVLTQSPATLSLSPGERATLSCRASQSVSSYLAWYQQKPGQAPRLLIYDASNRATGIPARFSGSGSGTDFTLTISSLEPEDFAVYYCQQRSNWPITFGQGTRLEIK
notes: Half-molecule of one heavy and one light chain; in PBS without other IgG it is reported to form a non-covalent dimer; also called hingeless IgG4 anti-CD20; IgG4 HG; not shown: human kappa light chain constant region, allotype km3 (vector pConKappa0.4, Lonza)
[1]
  binding result: no binding

B3: Betv1-HG (antibody, V domains shown)
VH: EVQLQQSGAELVKPGASVKLSCTASGFNIKDTYIHWVKQRPEQGLEWVGRIDPATGNTRYDPKFQGKATITADTSSNTAYLQLSSLTSEDTAVYYCASFRPGYALDYWGQGTSVTVSS
VL: DIVMTQSHKFMSTSVGDRVSFTCKASQDVFTAVAWYQQKPGQSPKLLIYWASTRRTGVPDRFTGSGSGTDYTLTISSVQAEDLALYYCQQHFSTPPTFGGGTKLEIK
notes: Half-molecule of one heavy and one light chain; also called hingeless IgG4 anti-Bet v 1; hingeless rIgG4 Betv1-HG; not shown: human kappa light chain constant region, allotype km3 (vector pConKappa0.4, Lonza)
[2]
  binding result: no binding
